Measured values from IntAct's records for PubMed 21765415.

B1: Inhibitor of nuclear factor kappa-B kinase subunit alpha (Homo sapiens), O15111 (parent)
chain: MERPPGLRPGAGGPWEMRERLGTGGFGNVCLYQHRELDLKIAIKSCRLELSTKNRERWCHEIQIMKKLNHANVVKACDVPEELNILIHDVPLLAMEYCSGGDLRKLLNKPENCCGLKESQILSLLSDIGSGIRYLHENKIIHRDLKPENIVLQDVGGKIIHKIIDLGYAKDVDQGSLCTSFVGTLQYLAPELFENKPYTATVDYWSFGTMVFECIAGYRPFLHHLQPFTWHEKIKKKDPKCIFACEEMSGEVRFSSHLPQPNSLCSLVVEPMENWLQLMLNWDPQQRGGPVDLTLKQPRCFVLMDHILNLKIVHILNMTSAKIISFLLPPDESLHSLQSRIERETGINTGSQELLSETGISLDPRKPASQCVLDGVRGCDSYMVYLFDKSKTVYEGPFASRSLSDCVNYIVQDSKIQLPIIQLRKVWAEAVHYVSGLKEDYSRLFQGQRAAMLSLLRYNANLTKMKNTLISASQQLKAKLEFFHKSIQLDLERYSEQMTYGISSEKMLKAWKEMEEKAIHYAEVGVIGYLEDQIMSLHAEIMELQKSPYGRRQGDLMESLEQRAIDLYKQLKHRPSDHSYSDSTEMVKIIVHTVQSQDRVLKELFGHLSKLLGCKQKIIDLLPKVEVALSNIKEADNTVMFMQGKRQKEIWHLLKIACTQSSARSLVGSSLEGAVTPQTSAWLPPTSAEHDHSLSCVVTPQDGETSAQMIEENLNCLGHLSTIIHEANEEQGNSMMNLDWSWLTE

Variants of: B1
Details: with taxb1_human TAX1BP1, Q86VP1
taxb1_human TAX1BP1, Q86VP1, sequence (Q86VP1 whole entry): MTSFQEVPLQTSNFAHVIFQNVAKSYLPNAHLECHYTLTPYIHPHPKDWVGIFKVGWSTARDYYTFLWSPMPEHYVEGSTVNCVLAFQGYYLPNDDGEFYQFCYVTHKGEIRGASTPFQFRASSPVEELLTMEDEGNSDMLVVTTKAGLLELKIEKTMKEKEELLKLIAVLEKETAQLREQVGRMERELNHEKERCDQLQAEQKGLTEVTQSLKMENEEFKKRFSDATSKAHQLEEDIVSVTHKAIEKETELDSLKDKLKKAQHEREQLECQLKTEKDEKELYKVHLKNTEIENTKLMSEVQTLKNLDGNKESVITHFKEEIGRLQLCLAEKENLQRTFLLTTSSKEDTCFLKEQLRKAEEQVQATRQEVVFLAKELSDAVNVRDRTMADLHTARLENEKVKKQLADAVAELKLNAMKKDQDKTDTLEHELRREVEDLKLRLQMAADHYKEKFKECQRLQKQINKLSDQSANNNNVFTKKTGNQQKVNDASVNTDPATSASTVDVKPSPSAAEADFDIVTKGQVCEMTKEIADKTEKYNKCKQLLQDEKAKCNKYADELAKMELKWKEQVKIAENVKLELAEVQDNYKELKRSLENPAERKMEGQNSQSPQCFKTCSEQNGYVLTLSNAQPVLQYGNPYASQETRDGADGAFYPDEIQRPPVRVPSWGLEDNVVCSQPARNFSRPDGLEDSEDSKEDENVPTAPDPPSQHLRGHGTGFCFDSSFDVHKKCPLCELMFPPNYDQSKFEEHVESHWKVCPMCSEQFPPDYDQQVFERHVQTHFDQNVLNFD

effect of a mutation on the interaction | Variant
disrupting interaction | K44M
